Test results: patent US20200368361A1 (Regeneron, published 2020)
Residue numbers refer to the chain shown, from its start. Numbers in names are those of the source.

T1: full length monkey MSR1 on HEK293.mfMSR1 cells (Macaca fascicularis, UniProt A0A2K5UWE2 1-451)
T1 construct: whole, on cells
T1 sequence: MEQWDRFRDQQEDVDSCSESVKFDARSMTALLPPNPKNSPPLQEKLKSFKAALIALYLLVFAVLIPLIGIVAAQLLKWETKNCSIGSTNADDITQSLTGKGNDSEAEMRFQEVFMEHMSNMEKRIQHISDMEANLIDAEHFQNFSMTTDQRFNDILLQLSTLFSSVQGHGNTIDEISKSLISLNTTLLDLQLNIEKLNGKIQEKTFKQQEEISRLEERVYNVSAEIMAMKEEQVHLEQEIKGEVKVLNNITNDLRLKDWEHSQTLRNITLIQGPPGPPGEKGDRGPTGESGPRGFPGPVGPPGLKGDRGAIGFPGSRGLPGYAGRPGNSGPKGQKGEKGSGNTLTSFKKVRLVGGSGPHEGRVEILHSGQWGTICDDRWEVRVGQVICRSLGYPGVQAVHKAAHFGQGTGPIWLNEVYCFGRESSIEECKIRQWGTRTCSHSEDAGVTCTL

T2: full length human MSR1 with a C-terminal Myc tag on HEK293.Myc.hMSR1 cells (human, UniProt P21757 1-451)
T2 construct: whole, on cells
T2 sequence (looked up): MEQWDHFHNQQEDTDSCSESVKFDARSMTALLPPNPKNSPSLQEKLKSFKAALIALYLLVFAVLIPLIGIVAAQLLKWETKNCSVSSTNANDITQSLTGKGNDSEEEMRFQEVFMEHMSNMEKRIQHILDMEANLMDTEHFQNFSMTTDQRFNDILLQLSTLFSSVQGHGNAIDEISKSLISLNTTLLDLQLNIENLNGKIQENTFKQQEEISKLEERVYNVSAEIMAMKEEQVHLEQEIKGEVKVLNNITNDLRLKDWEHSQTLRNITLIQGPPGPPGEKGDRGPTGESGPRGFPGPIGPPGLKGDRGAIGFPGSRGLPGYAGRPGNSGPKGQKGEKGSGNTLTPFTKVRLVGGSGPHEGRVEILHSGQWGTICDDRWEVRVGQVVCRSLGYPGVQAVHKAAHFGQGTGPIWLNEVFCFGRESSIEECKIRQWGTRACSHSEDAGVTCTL

T3: mouse MSR1 on RAW264.7 cells (mouse, UniProt P30204 1-458)
T3 construct: whole, on cells
T3 sequence (looked up): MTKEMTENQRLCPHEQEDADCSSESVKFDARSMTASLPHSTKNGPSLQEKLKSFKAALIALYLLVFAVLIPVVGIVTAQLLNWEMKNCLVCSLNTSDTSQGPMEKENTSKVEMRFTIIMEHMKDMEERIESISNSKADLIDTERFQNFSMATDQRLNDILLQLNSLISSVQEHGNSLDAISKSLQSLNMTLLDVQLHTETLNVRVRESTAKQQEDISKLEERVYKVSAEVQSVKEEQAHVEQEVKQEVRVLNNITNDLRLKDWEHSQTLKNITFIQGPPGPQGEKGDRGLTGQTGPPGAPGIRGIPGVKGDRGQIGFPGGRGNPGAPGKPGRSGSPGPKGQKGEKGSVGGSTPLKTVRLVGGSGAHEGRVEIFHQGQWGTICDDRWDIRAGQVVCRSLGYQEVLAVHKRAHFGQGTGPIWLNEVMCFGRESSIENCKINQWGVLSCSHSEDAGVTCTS

T4: monkey MSR1 extracellular domain expressed with a N-terminal hexahistidine-myc-myc tag (HMM-mfMSR1) (monkey (Macaca fascicularis))
T4 chain: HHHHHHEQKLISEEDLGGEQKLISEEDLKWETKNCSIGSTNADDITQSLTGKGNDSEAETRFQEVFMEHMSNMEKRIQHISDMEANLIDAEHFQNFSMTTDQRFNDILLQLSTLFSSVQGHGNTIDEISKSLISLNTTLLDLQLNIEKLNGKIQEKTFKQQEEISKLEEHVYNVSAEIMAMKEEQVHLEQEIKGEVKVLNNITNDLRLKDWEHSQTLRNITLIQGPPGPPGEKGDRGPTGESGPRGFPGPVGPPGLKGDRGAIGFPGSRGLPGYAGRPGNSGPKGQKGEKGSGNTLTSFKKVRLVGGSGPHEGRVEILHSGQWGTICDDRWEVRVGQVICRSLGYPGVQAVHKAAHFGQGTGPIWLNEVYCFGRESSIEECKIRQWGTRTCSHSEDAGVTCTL

B1: H1H27751P-N297Q (antibody, human IgG1, V domains shown)
VH: EVQLVESGGGLVQPGGSLRLSCAASGFTFSNYAMHWVRQAPGKGLEYVSAISSNGGSTYYADSVKGRITISRDNSKNTLYLQMGSLRAEDMAVYYCARGRPYYYYFGMDVWGQGTTVTVSS
VL: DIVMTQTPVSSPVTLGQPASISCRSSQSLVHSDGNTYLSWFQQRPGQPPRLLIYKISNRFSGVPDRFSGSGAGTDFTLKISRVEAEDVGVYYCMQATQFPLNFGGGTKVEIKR
notes: human IgG1 Fc with N297Q
B2: H1H27739P-N297Q (antibody, human IgG1, V domains shown)
VH: EVQLVESGGGLVQPGGSLRLSCTASGFTFSSYAMSWVRQAPGKGLEWVSAISGTGSSTYFTDSVKGRFAISRDNSKNTLYLQMNSLRAEDTAVYYCAKDGEWLSTVTLFDYWGQGTLVTVSS
VL: EIVMTQSPATLSVSPGERATLSCRASQSVSSNLAWYQQKPGQAPRLLIYGASTRATGIPARFSGSGSGTDFTLTISSLQSEDFALYYCQQYFIWPPHPTFGPGTKVDIKR
notes: human IgG1 Fc with N297Q
B3: H1H27729P-N297Q (antibody, human IgG1, V domains shown)
VH: QVQLVESGGGLVKPGGSLRLSCAASGFIFSDYYMSWIRQAPGKGLEWVSYISSSGTTIYGDSVKGRFTMSRDNAKNSLYLQMNSLRAEDTAVYYCARNYALFDYWGQGTLVTVSS
VL: DIQMTQSPSSLSASVGDRVTITCQASQDISKYLNWYQQKPGKAPKLLIYYTSNLETGVPSRFSGSGSGTDFTFTISSLQPEDIATYYCHQSDYLPFTFGPGTKVDIKR
notes: human IgG1 Fc with N297Q
B4: H1H27761P2-N297Q (antibody, human IgG1, V domains shown)
VH: EVQLVESGGDLVQPGGSLRLSCSASGFTFNIYAMSWVRQAPGKGLEWVSGISGSGGSTYYADSVKGRFTISRDNSKNTLYFQMNSLRVEDTAVYYCAKKISSSSYYYYAMDVWGQGTTVTVSS
VL: not shown
notes: human IgG1 Fc with N297Q; also called H1H27761P-N297Q
B5: H1H27759P2-N297Q (antibody, human IgG1, V domains shown)
VH: EVQLVESGGGFVQPGGSLRLSCAASGFTFSSYAMSWVRQAPGKGLEWVSAISGTGSNTYYADSVKGRFTISRDNSKNTLYLQMNSLRAEDTAVYYCAKDRVTTVTYYFDYWGQGTLVTVSS
VL: not shown
notes: human IgG1 Fc with N297Q; also called H1H27759P-N297Q
B6: H1H27762P2-N297Q (antibody, human IgG1, V domains shown)
VH: QVQLVQSGAEVKKPGSSVKVSCKASGGTFSRYDISWVRQAPGQGLEWMGGIIPIFGTSNYAQKFQGRVTITTDESTSTVYMELSSLRSEDTAVYYCARGGRYGWFDPWGQGTLVTVSS
VL: not shown
notes: human IgG1 Fc with N297Q; also called H1H27762P-N297Q
B7: H1H27766P2-N297Q (antibody, human IgG1, V domains shown)
VH: EVQLVESGGGLVQPGGSLRLSCAASGFTFSSFAMSWVRQAPGKELEWVSSISGRGGSTYYADSVRGRFTISRDNSKITLYLQMNSLRAEDTAVYYCAKDIVFRYTSSAYWYFDLWGRGTLVTVSS
VL: not shown
notes: human IgG1 Fc with N297Q; also called H1H27766P-N297Q
B8: H1H27754P-N297Q (antibody, human IgG1, V domains shown)
VH: EVQLVESGGGLVQPGGSLRLSCAASGFTFRTYAMTWVRQAPGKGLDWVSAITGDGGNTYYADSVKGRFTISRDNSKNTLYLQMNSLRAEDTAIYYCAKDQRFSFALYYFDYWGQGTLVTVSS
VL: DIQMTQSPSSVSASVGDRVTITCRASQGISSWLAWYQQKPGNAPKLLIYAAFSLQSGVPSRFSGSGSGTDFTLTISSLQPEDFATYYCQQANNFPWTFGQGTKVEIKR
notes: human IgG1 Fc with N297Q
B9: H1H27731P-N297Q (antibody, V domains shown)
VH: QLQLQESGPGLVKPSETLSLTCTVSGGSISRISYYWGWIRQPPGKGLEWIGSIYDSGSTYYNPSLKSRVTISIDTSKNQFSLKLSSVTAADTAVYYCVRYSSSSAFAFDYWGQGTLVTVSS
VL: B8 VL with N42K, F52S, N93S, W96F, Q100P, E105D
notes: human IgG1 Fc with N297Q
B10: H1H27747P-N297Q (antibody, human IgG1, V domains shown)
VH: QVQLVESGGAVVQPGRSLRLSCAASGFTFSYYGMHWVRQAPGKGLEWVAVISYDGSKKYYADSVKGRFTISRDNSKNTLYLQMNSLRAEDTAVYYCAKDLTVDFYYGMDVWGQGTTVTVSS
VL: B8 VL with N42K, A51T, F52S, V58A, Y87F, N93S, W96Y, V104L
notes: human IgG1 Fc with N297Q
B11: H1H27734P-N297Q (antibody, human IgG1, V domains shown)
VH: EVQLVESRGGLVQPGGSLRLSCAASGFTFSSYAMSWVRQAPGKGLEWVSAISGSGGSTFYADSVKGRFTISRDNSKNTVYLQMNSLRAEDTAVYYCAKALVLRFLEWLGDYWGQGTLVTVSS
VL: DIQMTQSPSTLSASVGDRVTITCRASQSISSWLAWFQQKPGKAPKLLIYKASSLESGVPSRFSGSGSGTEFTLTISSLQPDDFATYYCQQYKSYWTFGQGTKVEIKR
notes: human IgG1 Fc with N297Q
B12: H1H27747P-N297Q (antibody, V domains shown)
VH: B10 VH
VL: B8 VL with N42K, A51T, F52S, V58A, Y87F, N93S, W96Y, V104L
notes: human IgG1 Fc with N297Q point mutation

The binders below were run against T1, full length monkey MSR1 on … (assay: ECL cell binding, HEK293.mfMSR1).
Description: (§1) All cells were washed once with 1×PBS with Ca²⁺/Mg²⁺ and counted with a Cellometer™ Auto T4 cell counter (Nexcelom Bioscience). Approximately 1.0×10⁴ cells were seeded separately onto 96-well carbon electrode plates [MULTI-ARRAY high bind plate, Meso Scale Diagnostics] and incubated for 1 hour at 37° C. Non-specific binding sites were then blocked by 2% BSA (w/v) in PBS with Ca²⁺/Mg²⁺ for 1 hour at room temperature. THP-1 cells were pre-incubated for 0.5 hours at room temperature in sample dilution buffer with: 1) 1 mg/mL Fc receptor block reagents to block Fc gamma receptors on THP-1 cell surface [whole molecule human IgG (Jackson Immunoresearch, Cat #009-000-003) for wells being tested with anti-MSR1-mFc antibodies or 2) whole molecule mIgG (Jackson Immunoresearch, Cat #015-000-003) for wells being tested with anti-MSR1-hFc antibodies. Antibody binding on HEK293.Myc.hMSR1, HEK293.mfMSR1 and HEK293 cells was tested without Fc receptor block reagents. […] Plates were then washed to remove unbound antibodies an AquaMax2000 plate washer with a cell washing head (MDS Analytical Technologies). […] Plates were washed and developed with Read Buffer (Meso Scale Diagnostics, Cat #R92TD-2) according to manufacturer's recommended procedure and luminescent signals were recorded with a SECTOR Imager 600 (Meso Scale Diagnostics). Luminescence intensity, measured in relative light units (RLU), was recorded to indicate the binding intensity of each antibody at the range of concentrations.

| binding signal ratio to isotype control (11 nM) | Binder |
| --- | --- |
| 49 fold | B1 |
| 20 fold | B2 |
| 6 fold | B3 |
| 15 fold | B4 |
| 25 fold | B5 |
| 25 fold | B6 |
| 13 fold | B7 |
| 53 fold | B8 |
| 43 fold | B9 |
| 21 fold | B10 |
| 28 fold | B11 |

The binders below were run against T2, full length human MSR1 with a … (assay: ECL cell binding, HEK293.Myc.hMSR1).
Description: as §1

| binding signal ratio to isotype control (11 nM) | Binder |
| --- | --- |
| 63 fold | B1 |
| 22 fold | B2 |
| 17 fold | B3 |
| 23 fold | B4 |
| 23 fold | B5 |
| 33 fold | B6 |
| 20 fold | B7 |
| 55 fold | B8 |
| 48 fold | B9 |
| 26 fold | B10 |
| 40 fold | B11 |

These binders were tested against T3, mouse MSR1 on RAW264.7 cells (assay: flow cytometry, RAW264.7 cells, 10 ug/mL;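 also: antibodies bound to RAW264.7 cells for 30 min on ice after Fc block with mouse IgG, S/N is MFI relative to unstained cells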).
Description: To block binding to Fc receptors, RAW264.7 cells were incubated for 30 minutes at 4° C. with 500 μg/mL mouse IgG (Jackson ImmunoResearch, Cat #015-000-003) diluted in staining buffer, while B16F10.9 cells remained in staining buffer. Following Fc receptor blocking, 10 μg/mL of anti-MSR1 antibodies or an isotype control antibody were added to the cells and were subsequently incubated for 30 minutes on ice. […] The signal to noise (S/N) was determined by calculating the ratio of the anti-MSR1 antibodies or the control antibodies MFI to the unstained sample MFI (Table 16).

| MFI | S/N | Binder |
| --- | --- | --- |
| 3820 | 1 | B1 |
| 3270 | 1 | B2 |
| 3480 | 1 | B3 |
| 3840 | 1 | B4 |
| 3290 | 1 | B5 |
| 3520 | 1 | B6 |
| 3810 | 1 | B7 |
| 5410 | 1 | B8 |
| 3510 | 1 | B9 |
| 3630 | 1 | B10 |
| 4780 | 1 | B11 |

Biological target: T4, monkey MSR1 extracellular domain …
Test: SPR Biacore, 25C, mAb captured by anti-human Fc, MSR1 as analyte;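 also: Half-life of complex dissociation derived from kinetic rates, obtained by fitting Biacore 4000 sensorgrams to a 1:1 model including mass transport, run in HBS-ET buffer at pH 7.4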
Description: Binding affinities and kinetic constants of human anti-MSR1 antibodies for different MSR1 reagents were determined by real-time surface plasmon resonance (Biacore 4000). All binding studies were performed in 10 mM HEPES, 150 mM NaCl, 3 mM EDTA, and 0.05% v/v Surfactant Tween-20, pH 7.4 (HBS-ET) running buffer at 25° C. and 37° C.
The association rate (kₐ) and dissociation rate (kd) were determined by fitting the real-time binding sensorgrams to a 1:1 binding model with mass transport limitation using Scrubber 2.0 c curve-fitting software.

| t½ | Binder |
| --- | --- |
| 13 min | B12 |
